Reference: patent publication US20090217392A1

How the values were obtained:
[1] = target: human αVβ3 integrin, purified (human) (UniProt P06756); test: saturation ELISA on αvβ3-coated plate, n = 6
[2] = target: human αvβ3 integrin on cells (human) (UniProt P06756); test: 125-I antibody saturation binding on M21 cells
[3] = target: human αvβ3 integrin on cells (human) (UniProt P06756); test: 125-I antibody saturation binding on A375S2 cells

Sequence of human αvβ3 integrin on cells (human) (P06756 31-1048, chain 1 of 2): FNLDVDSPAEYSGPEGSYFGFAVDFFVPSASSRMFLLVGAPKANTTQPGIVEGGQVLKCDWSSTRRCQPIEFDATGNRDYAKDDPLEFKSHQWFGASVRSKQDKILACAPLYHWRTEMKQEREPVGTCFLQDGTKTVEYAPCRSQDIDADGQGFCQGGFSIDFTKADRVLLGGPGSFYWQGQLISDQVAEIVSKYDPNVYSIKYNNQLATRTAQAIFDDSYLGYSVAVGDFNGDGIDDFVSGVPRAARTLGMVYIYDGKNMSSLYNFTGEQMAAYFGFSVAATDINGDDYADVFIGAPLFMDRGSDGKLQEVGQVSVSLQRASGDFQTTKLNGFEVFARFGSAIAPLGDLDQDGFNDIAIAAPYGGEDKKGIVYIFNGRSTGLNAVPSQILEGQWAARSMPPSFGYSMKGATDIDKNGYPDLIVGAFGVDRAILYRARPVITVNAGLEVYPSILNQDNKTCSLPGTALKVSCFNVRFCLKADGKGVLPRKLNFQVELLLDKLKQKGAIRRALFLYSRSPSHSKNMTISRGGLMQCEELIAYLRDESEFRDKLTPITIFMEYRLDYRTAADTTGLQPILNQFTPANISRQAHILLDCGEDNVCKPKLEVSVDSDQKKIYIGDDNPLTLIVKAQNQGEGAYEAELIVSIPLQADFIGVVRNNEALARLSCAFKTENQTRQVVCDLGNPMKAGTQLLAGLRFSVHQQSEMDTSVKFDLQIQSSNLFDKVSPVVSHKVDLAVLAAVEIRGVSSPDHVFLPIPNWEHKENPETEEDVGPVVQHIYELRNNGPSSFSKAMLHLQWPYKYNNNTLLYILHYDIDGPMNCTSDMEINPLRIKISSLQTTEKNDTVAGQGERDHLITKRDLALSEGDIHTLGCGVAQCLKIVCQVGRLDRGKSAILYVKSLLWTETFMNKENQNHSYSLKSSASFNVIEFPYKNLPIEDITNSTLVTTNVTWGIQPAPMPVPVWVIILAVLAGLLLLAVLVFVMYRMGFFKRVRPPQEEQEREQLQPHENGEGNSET
Sequence of human αvβ3 integrin on cells (human) (P05106 27-788, chain 2 of 2, further chain): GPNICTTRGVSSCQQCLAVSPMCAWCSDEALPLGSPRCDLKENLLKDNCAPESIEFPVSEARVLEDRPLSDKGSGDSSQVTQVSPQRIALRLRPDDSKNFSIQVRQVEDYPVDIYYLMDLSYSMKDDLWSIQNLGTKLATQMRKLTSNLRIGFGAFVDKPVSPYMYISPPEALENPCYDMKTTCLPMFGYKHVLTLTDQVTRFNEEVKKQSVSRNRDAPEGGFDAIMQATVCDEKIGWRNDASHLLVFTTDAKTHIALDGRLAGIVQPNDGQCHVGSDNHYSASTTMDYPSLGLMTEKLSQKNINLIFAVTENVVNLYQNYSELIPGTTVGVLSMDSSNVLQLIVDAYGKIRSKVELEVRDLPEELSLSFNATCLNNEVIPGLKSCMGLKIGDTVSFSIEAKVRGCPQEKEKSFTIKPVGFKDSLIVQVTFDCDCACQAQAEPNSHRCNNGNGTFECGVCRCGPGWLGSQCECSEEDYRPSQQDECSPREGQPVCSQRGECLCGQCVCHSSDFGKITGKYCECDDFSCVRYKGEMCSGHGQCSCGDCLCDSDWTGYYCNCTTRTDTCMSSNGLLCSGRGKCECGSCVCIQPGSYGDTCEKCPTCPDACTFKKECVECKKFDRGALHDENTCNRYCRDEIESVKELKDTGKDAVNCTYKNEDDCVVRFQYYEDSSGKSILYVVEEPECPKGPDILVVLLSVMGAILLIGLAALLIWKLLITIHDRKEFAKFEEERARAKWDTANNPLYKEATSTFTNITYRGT
Sequence of human αVβ3 integrin, purified (human) (P06756 31-1048, form in doubt, chain 1 of 2): as the sequence (P06756 31-1048, chain 1 of 2) above
Sequence of human αVβ3 integrin, purified (human) (P05106 27-788, form in doubt, chain 2 of 2, further chain): as the sequence (P05106 27-788, chain 2 of 2, further chain) above

B1: abciximab (Fab, INN chains, looked up, V domains shown)
VH: EVQLQQSGTVLARPGASVKMSCEASGYTFTNYWMHWVKQRPGQGLEWIGAIYPGNSDTSYIQKFKGKAKLTAVTSTTSVYMELSSLTNEDSAVYYCTLYDGYYVFAYWGQGTLVTVSA
VL: EIVLTQSPVTLSVTPGDSVSLSCRASRDISNNLHWFQQTSHESPRLLIKYASQSMSGIPSRFSGSGSGTDFTLSINSVETEDFGMYFCQQTNSWPYTFGGGTKLEIK
modifications: Fab 125I label
Kd [1]: 0.00025 µM
Kd [2]: 0.01 µM
Receptors per cell (receptors per cell) [2]: 660000
Kd [3]: 0.022 µM
Receptors per cell (receptors per cell) [3]: 370000
